This passage reports Kd results from US20240141072A1 (published 2024).

First the molecules themselves.
B1: 1F07 anti-DLL3 trispecific protein (other)
chain: EVQLVESGGGLVQPGGSLTLSCVASGSTSSINAMGWYRRAPGKQRELVAGISSDGSKVDADSVKGRFTISRDNAKNSVYLQMNSLRAEDTAVYYCYYFRTVSGSSMRYWGQGTLVTVSS
notes: not shown: linker 1808, anti-albumin sdAb, linker 1808, anti-CD3 fragment, His6 1819
B2: 2A05 anti-DLL3 trispecific protein (other)
chain: EVQLVESGGGLVQPGGSLTLSCVASGRTSSINAMGWYRRAPGKQRELVAGISSDGSKVYNDSVKGRFTISRDNAKNSVYLQMNSLRAEDTAVYYCYYFRTVSGTSMRYWGQGTLVTVSS
notes: as for B1
B3: 1H011 anti-DLL3 trispecific protein (other)
chain: EVQLVESGGGLVQPGGSLTLSCVASGSTSSINAIGWYRRAPGKQRELVAGISSDGSKVYNDSVKGRFTISRDNAKNSVYLQMNSLRAEDTAVYYCYYFRTQSGSSMRYWGQGTLVTVSS
notes: as for B1
B4: 1H02 anti-DLL3 trispecific protein (other)
chain: EVQLVESGGGLVQPGGSLTLSCVASGSKSSINAMGWYRRAPGKQRELAAGISSDGSKVYAQSVKGRFTISRDNAKNSVYLQMNSLRAEDTAVYYCYYFRTSSGSSMRYWGQGTLVTVSS
notes: as for B1
B5: 1G07 anti-DLL3 trispecific protein (other)
chain: EVQLVESGGGLVQPGGSLTLSCVASGSTSSINAMGWYRRAPGKQRELVAGISSDGSKVVADSVKGRFTISRDNAKNSVYLQMNSLRAEDTAVYYCYYFRTYSGSSMRYWGQGTLVTVSS
notes: as for B1
B6: 1G011 anti-DLL3 trispecific protein (other)
chain: EVQLVESGGGLVQPGGSLTLSCVASGSTSSINAMAWYRRAPGKQRELVAGISSDGSKVYADSVKGRFTISRDNAKNSVYLQMNSLRAEDTAVYYCYYFKTVSGSSMRYWGQGTLVTVSS
notes: as for B1
B7: 1F09 anti-DLL3 trispecific protein (other)
chain: EVQLVESGGGLVQPGGSLTLSCVASGNTSSINAMGWYRRAPGKQRELVAGISSNGSKVYADSVKGRFTISRDNAKNSVYLQMNSLRAEDTAVYYCYYFRTVTGSSMRYWGQGTLVTVSS
notes: as for B1
B8: 2B02 anti-DLL3 trispecific protein (other)
chain: EVQLVESGGGLVQPGGSLTLSCVASGSTSSINAMAWYRRAPGKQRELVAGISSDGSKVYADSVKGRFTISRDNAKNSVYLQMNSLRAEDTAVYYCYYFRTKSGSSMRYWGQGTLVTVSS
notes: as for B1
B9: 2B03 anti-DLL3 trispecific protein (other)
chain: EVQLVESGGGLVQPGGSLTLSCVASGSTSSINAMGWYRRAPGKQRELVAGISSDGSLVYADSVKGRFTISRDNAKNSVYLQMNSLRAEDTAVYYCYYFTTVSGSSMRYWGQGTLVTVSS
notes: as for B1
B10: 1F011 anti-DLL3 trispecific protein (other)
chain: EVQLVESGGGLVQPGGSLTLSCVASGSTSSINAIGWYRRAPGKQRELVAGISSDGSKVYADSVKGRFTISRDNAKNSVYLQMNSLRAEDTAVYYCYYFRTVKGSSMRYWGQGTLVTVSS
notes: as for B1
B11: 1H08 anti-DLL3 trispecific protein (other)
chain: EVQLVESGGGLVQPGGSLTLSCVASGSTFSINAMGWYRRAPGKQRELVAGISSDGSKVLADSVKGRFTISRDNAKNSVYLQMNSLRAEDTAVYYCYYFRLVSGSSMRYWGQGTLVTVSS
notes: as for B1
B12: 1G01 anti-DLL3 trispecific protein (other)
chain: EVQLVESGGGLVQPGGSLTLSCVASGSTSSINAMAWYRRAPGKQRELVAGISSDGSKVYAESVKGRFTISRDNAKNSVYLQMNSLRAEDTAVYYCYYFRTVSGASMRYWGQGTLVTVSS
notes: as for B1
B13: 1G09 anti-DLL3 trispecific protein (other)
chain: EVQLVESGGGLVQPGGSLTLSCVASGSTSSINAMGWYRRAPGKQRELVAGISSDGSKVYADSVKGRFTISRDNAKNSVYLQMNSLRAEDTAVYYCYYFRTVSKSSMRYWGQGTLVTVSS
notes: as for B1
B14: 2A09 anti-DLL3 trispecific protein (other)
chain: EVQLVESGGGLVQPGGSLTLSCVASGSTSSRNAMGWYRRAPGKQRELVAGISSNGSKVYSDSVKGRFTISRDNAKNSVYLQMNSLRAEDTAVYYCYYFRTVSGSSMSYWGQGTLVTVSS
notes: as for B1
B15: 2A03 anti-DLL3 trispecific protein (other)
chain: EVQLVESGGGLVQPGGSLTLSCVASGTTSSINAMGWYRRAPGKQRELVAGISSDGSKVYGDSVKGRFTISRDNAKNSVYLQMNSLRAEDTAVYYCYYFRTVSGSAMRYWGQGTLVTVSS
notes: as for B1
B16: 2B01 anti-DLL3 trispecific protein (other)
chain: EVQLVESGGGLVQPGGSLTLSCVASGSTSLINAMGWYRRAPGKQRELVAGISSDGSKVYADSVKGRFTISRDNAKNSVYLQMNSLRAEDTAVYYCYYFRHVSGSSMRYWGQGTLVTVSS
notes: as for B1
B17: 1F08 anti-DLL3 trispecific protein (other)
chain: EVQLVESGGGLVQPGGSLTLSCVASGSTSSINAMAWYRRAPGKQRELVAGISSDGSKVYKDSVKGRFTISRDNAKNSVYLQMNSLRAEDTAVYYCYYFRNVSGSSMRYWGQGTLVTVSS
notes: as for B1
B18: 1H07 anti-DLL3 trispecific protein (other)
chain: EVQLVESGGGLVQPGGSLTLSCVASGSTSSINAFGWYRRAPGKQRELVAGISSDGSKVYSDSVKGRFTISRDNAKNSVYLQMNSLRAEDTAVYYCYYFRTVSGSSMRYWGQGTLVTVSS
notes: as for B1
B19: 2A01 anti-DLL3 trispecific protein (other)
chain: EVQLVESGGGLVQPGGSLTLSCVASGSTSSINAMGWYRRAPGKQRELVAGISSDGSKVVADSVKGRFTISRDNAKNSVYLQMNSLRAEDTAVYYCYYFRTLSGSSMRYWGQGTLVTVSS
notes: as for B1
B20: 1G06 anti-DLL3 trispecific protein (other)
chain: EVQLVESGGGLVQPGGSLTLSCVASGSTSSINAIGWYRRAPGKQRELVAGISSDGSKVYAVSVKGRFTISRDNAKNSVYLQMNSLRAEDTAVYYCYYFRKVSGSSARYWGQGTLVTVSS
notes: as for B1
B21: 2A06 anti-DLL3 trispecific protein (other)
chain: EVQLVESGGGLVQPGGSLTLSCVASGSTSSRNAMGWYRRAPGKQRELVAGISSDGSKVTADSVKGRFTISRDNAKNSVYLQMNSLRAEDTAVYYCYYFRTRSGSSMRYWGQGTLVTVSS
notes: as for B1
B22: 2A011 anti-DLL3 trispecific protein (other)
chain: EVQLVESGGGLVQPGGSLTLSCVASGSTSSINAIGWYRRAPGKQRELVAGISSDGSKVYSDSVKGRFTISRDNAKNSVYLQMNSLRAEDTAVYYCYYFRPVSGSSMRYWGQGTLVTVSS
notes: as for B1
B23: 1H01 anti-DLL3 trispecific protein (other)
chain: EVQLVESGGGLVQPGGSLTLSCVASGSTSSINAMAWYRRAPGKQRELAAGISSDNSKVYADSVKGRFTISRDNAKNSVYLQMNSLRAEDTAVYYCYYFRTRSGSSMRYWGQGTLVTVSS
notes: as for B1
B24: 1F012 anti-DLL3 trispecific protein (other)
chain: EVQLVESGGGLVQPGGSLTLSCVASGLTSSINAMGWYRRAPGKQRELVAGISSDGSKVYQDSVKGRFTISRDNAKNSVYLQMNSLRAEDTAVYYCYYFRTNSGSSMRYWGQGTLVTVSS
notes: as for B1
B25: 1H010 anti-DLL3 trispecific protein (other)
chain: EVQLVESGGGLVQPGGSLTLSCVASGSTRSINAMGWYRRAPGKQRELVAGISSDGSKVYNDSVKGRFTISRDNAKNSVYLQMNSLRAEDTAVYYCYYFRTVSGSSMRFWGQGTLVTVSS
notes: as for B1
B26: 1G05 anti-DLL3 trispecific protein (other)
chain: EVQLVESGGGLVQPGGSLTLSCVASGSTSSINAIGWYRRAPGKQRELVAGISSDGSKYYADSVKGRFTISRDNAKNSVYLQMNSLRAEDTAVYYCYYFRTVTGSSMRYWGQGTLVTVSS
notes: as for B1
B27: 1H06 anti-DLL3 trispecific protein (other)
chain: EVQLVESGGGLVQPGGSLTLSCVASGTTSSINAMGWYRRAPGKQRELVAGISSDGSKVYVDSVKGRFTISRDNAKNSVYLQMNSLRAEDTAVYYCYYFRFLSGSSMRYWGQGTLVTVSS
notes: as for B1
B28: 2A08 anti-DLL3 trispecific protein (other)
chain: EVQLVESGGGLVQPGGSLTLSCVASGSTKSINAMGWYRRAPGKQRELVAGISSDGSKVYRDSVKGRFTISRDNAKNSVYLQMNSLRAEDTAVYYCYYFRTSSGSSMRYWGQGTLVTVSS
notes: as for B1
B29: 1G04 anti-DLL3 trispecific protein (other)
chain: EVQLVESGGGLVQPGGSLTLSCVASGSTSSTNAMGWYRRAPGKQRELVAGISSDGSKVLADSVKGRFTISRDNAKNSVYLQMNSLRAEDTAVYYCYYFRTVNLSSMRYWGQGTLVTVSS
notes: as for B1
B30: 1F010 anti-DLL3 trispecific protein (other)
chain: EVQLVESGGGLVQPGGSLTLSCVASGSTSRINAMGWYRRAPGKQRELVAGISSDGSKVYKDSVKGRFTISRDNAKNSVYLQMNSLRAEDTAVYYCYYFRTVSGSSMRYWGQGTLVTVSS
notes: as for B1

For orientation: Kd means the constant that tells how readily two partners part at equilibrium. A higher Kd goes with lower affinity.

The target of the test is T1, biotinylated human DLL3 protein expressed as a human IgG1 fusion protein (human, UniProt Q9NYJ7 27-492, limits assumed, biotinylated).
T1 sequence: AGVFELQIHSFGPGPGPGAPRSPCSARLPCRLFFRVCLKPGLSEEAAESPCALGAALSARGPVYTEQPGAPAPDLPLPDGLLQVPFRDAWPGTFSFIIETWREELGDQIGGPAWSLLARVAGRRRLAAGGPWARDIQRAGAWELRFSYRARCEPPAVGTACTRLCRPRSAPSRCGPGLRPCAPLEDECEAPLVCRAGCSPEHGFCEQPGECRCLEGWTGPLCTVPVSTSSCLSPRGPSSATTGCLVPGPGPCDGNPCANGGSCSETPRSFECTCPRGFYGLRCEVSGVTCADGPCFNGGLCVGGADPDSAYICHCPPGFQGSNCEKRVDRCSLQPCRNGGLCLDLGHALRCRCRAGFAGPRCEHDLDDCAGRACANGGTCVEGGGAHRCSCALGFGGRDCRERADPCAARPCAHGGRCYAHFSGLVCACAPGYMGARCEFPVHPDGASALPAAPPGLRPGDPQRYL
Briefly: Octet BLI, single 50 nM. As to the method:
Using the conditioned medium with known concentrations of the anti-DLL3 trispecific proteins, the binding affinities of the anti-DLL3 trispecific proteins toward human DLL3 protein were measured using a method where biotinylated version of human DLL3 protein were expressed as a human IgG1 fusion protein, and the binding affinity measurement was carried out in an Octet instrument with streptavidin tips.
In general terms: BLI is a label-free optical method that tracks binding on a fibre tip over time.
B1 yielded a Kd of 13 nM. As for B2, the figure is 8.9 nM.

For B3, the dissociation constant Kd was 6.2 nM. The Kd values of the last two molecules are within 1.5-fold of each other. As for B4, the figure is 10 nM; as for B5, 8.3 nM; as for B6, 6.8 nM. As for B7, the figure is 35 nM; as for B8, 6.6 nM; as for B9, 7.6 nM. Under B10 stands 5 nM; under B11, 17 nM. Take B12: the Kd turned out to be 6.6 nM. Consider B13, for which the Kd is 10 nM. Under B14 stands 10 nM.

Consider B15, for which binding was characterised by a dissociation constant (Kd) of 8.2 nM. Under B16 stands 10 nM. As for B17, the figure is 31 nM. As for B18, the figure is 6.2 nM. In turn, B19 yielded a Kd of 8 nM. As for B20, the figure is 26 nM; as for B21, 8.9 nM; as for B22, 4 nM. Under B23 stands 5.7 nM; under B24, 5.8 nM; under B25, 8.4 nM. As for B26, the figure is 14 nM. The molecule B27 showed a Kd of 14 nM. As for B28, the figure is 7.7 nM; as for B29, 11 nM; as for B30, 6.3 nM.
